# From US20250019453A1 (SYNTHEKINE, published 2025)
# T1: mIL2Rb ECD antigen (murine, UniProt P16297 27-240)
# T1 construct: The immunogen was the ECD fused to human IgG1 hinge and Fc; also called ECD of IL2Rb (mouse)
# T1 sequence: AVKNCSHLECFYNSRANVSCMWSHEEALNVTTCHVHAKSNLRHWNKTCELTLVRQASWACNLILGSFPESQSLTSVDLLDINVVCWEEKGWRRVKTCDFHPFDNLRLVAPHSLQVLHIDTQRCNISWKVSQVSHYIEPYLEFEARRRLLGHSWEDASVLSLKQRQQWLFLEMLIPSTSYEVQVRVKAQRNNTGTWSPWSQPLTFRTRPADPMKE
# B1: DR857 (VHH)
# VHH: QVQLQESGGGLVQPGGSLRLSCAASGFTFSLYDMSWVRQAPGKGLEWVSGINSGGYSTYYAASAKGRFTISRDNAKNTLYLQLSSVKTEDTAMYYCAQRGLTSPYVIPNIRLQGTQVTVSS
# notes: As a his-tagged phage clone periplasmic extract
# B2: DR1448 (VHH)
# VHH: EVQLVESGGRLVQAGDSLRLSCVASGKSFSDYPLGWFRQAPGKAREYVAHISWSGKLTYYRSTVKGRFTISRDNAENKLYLQMNALKPEDTAVYYCAAMKLFNYGGRYCVLKPLTMYQQWSQGTQVTVSS
# notes: as for B1
# B3: DR1449 (VHH)
# VHH: EVQLVESGGGLVQAGGSLRLSCAASGRSFSGYAIGWFRQAPGKEREFVAVVSWRGSSTYYADSVKGRFTISRDNAKGTVYLQMNSLKPEDTAAYYCAAVPSGRSWYGRNRYWGQGTQVTVSS
# notes: as for B1
# B4: DR1450 (VHH)
# VHH: EVQLVESGGGLVQAGGSLRLSCVISGRSINYYRMGWFRQAPGNRRQFVAAIKWGGDGVYADSVKGRFTISRDNTKNTVYLQMDSLKPEDTGTYYCAKMPLSSWSRGGYLEVWGQGTLVTVSS
# notes: as for B1
# B5: DR1451 (VHH)
# VHH: EVQLVESGGGLVQAGDSLRLSCAASERFSWGNYAMYWFRQAPGKEREFVAAIGRNSMATYYRDSAKGRFVISRDNAKNTLYLEMNALKPEDTARYYCAAKFMVADGWSRQYDYWGQGTLVTVSS
# notes: as for B1
# B6: DR1452 (VHH)
# VHH: EVQLVESGGGLVQAGGALRLSCAASGRTFRRFMGWFRQAPGKEREFVAAINWPGGGTYYGDSVKGRFTISRDNAKNTVYLQMNSLKPEDTANYYCAATRKYNLYKFADWGQGTQVTVSS
# notes: as for B1
# B7: DR1453 (VHH)
# VHH: EVQLVESGGRLVQAGDSLRLSCVASGRIFNTYSMGWFRQVPGKERDFVAAIRWSGGTTYYTDSVKGRFTISRDNAKNTVYLQMNSLKPEDTAVYYCWVRVRLSNTALLQRYWGQGTLVTVSS
# notes: as for B1
# B8: DR1454 (VHH)
# VHH: EVQLVESGGGLVQAGGSLRLFCASSERTFGDYPIGWFRQAPGKEREFVASISWGGSRQYYTDSVKGRFTITRDNDKNTVYLQMNSLKPEDTAVYYCWVRVRLSNTALLQRYWGQGTLVTVSS
# notes: as for B1
# B9: DR1455 (VHH)
# VHH: EVQLVESGGGLVQTGGSLRLSCAASGRTFNSYAMGWFRQSPGKEREFVAVITWNSGRTYYADSVKGRFTISRDNAKNTVYLQMNSLKPEDTAVYYCNSAPWAHNREWGQGTLVTVSS
# notes: as for B1
# B10: DR1456 (VHH)
# VHH: EVQLVESGGGLVQAGGSLRLSCAASGLTFRTYYMSWFRQAPGKEREFVGVISWIGSTTLYADSVKGRFSISRDNAKNTVYLQMNNLKPEDTAVYYCAANFLREGKREPRYWGQGTQVTVSS
# notes: as for B1
# B11: DR1457 (VHH)
# VHH: EVQLVESGGRLVQAGDSLRLSCVASGRIFNTYSMGWFRQVPGKERDFVAAIRWSGGTTYYTDSVKGRFTISRDNAKNTVYLQMNSLKPEDTAVYYCYLRVFARRYWGQGTQVTVSS
# notes: as for B1
# B12: DR1458 (VHH)
# VHH: EVQLVESGGGLVQAGGSLRLSCAASGRTLSTYAMGWFRQAPGKEREFVAAIRWASGRTYYGDSVKGRFTISRDSAKNTVYLQMNSLKPEDTAVYYCAARSRPYLNYGDFGYWGQGTQVTVSS
# notes: as for B1
# B13: DR1459 (VHH)
# VHH: EVQLVESGGGLVQAGGSLRLSCAASGRTISTYAMVWFRQASGKEREFVGVISRSGDRTYYADSVKGRFTISRDNLGNIVRLQLNSLKPEDTAVYYCARGGYTGIETITARGRGTLVTVSS
# notes: as for B1
# B14: DR1460 (VHH)
# VHH: EVQLVESGGGLVQTGDSLRLSCAAPESIFNNNAVYWYRQFPGKEREYVGLITIGGRTGYADSVKGRFTISRDNANNVAFLQMDSLKPEDTAVYYCATGLKFGFNFYSKTAYDYWGQGTQVTVSS
# notes: as for B1
# B15: DR1461 (VHH)
# VHH: EVQLVESGGRLVQAGDSLRLSCVASGRIFNTYSMGWFRQVPGKERDFVAAIRWSGGTTYYTDSVKGRFTISRDNAKNTVYLQMKDLKPQDTAVYYCAAVPSGRSWYGRNRYWGQGTLVTVSS
# notes: as for B1
# B16: DR1462 (VHH)
# VHH: EVQLVESGGGLVQAGGSLRLSCVSSGRTFGYVAMGWFRQAPGKEREFVASINWSGGSTAYADSVKGRFTISRDNAKNTVYLQMNSLKPEDTAVYYCAGSTRFYIATMEQGSYDYWGQGTQVTVSS
# notes: as for B1
# B17: DR1463 (VHH)
# VHH: EVQLVESGGSVVQPGDSLRLACTASGRSFRSYAIGWFRQASGKERVFVAAISYDGRRTYYGRSLKDRFTISRDNAKNTVYLQMNSLKPEDTAVYYCATHRSGTMFARYGMDYWGKGTLVTVSS
# notes: as for B1
# B18: DR1464 (VHH)
# VHH: EVQLVESGGGLVQAGGSLRLSCAASGRTFSSYAMGWFRQAPGKEREFVTAISRSGGYTSYADSVKGRFTISRDNAKNTVYLQMNSLKPEDTAVYYCAKLIAPFYYGMDYWTKGTQVTVSS
# notes: as for B1
# B19: DR1465 (VHH)
# VHH: EVQLVESGGGLMQAGGALRLSCTASGPTFTSYTMGWFRQSPGKRREFVAVISKGGRTYYADSVKGRFTISRDNAKNTFYLQMSSLKPEDTAVYYCAGQRVGATSKYEYDYWGQGTQVTVSS
# notes: as for B1
# B20: DR1466 (VHH)
# VHH: EVQLVESGGGLVRAGGSLRLSCAASGFTFSTDWMYWVRRAPGKGLEWVSLINTDGTSTSYTKSVKGRFTVSRDNAKNTLYLQMNSLKPEDTALYYCARGRTYWFYAMDYWGKGTQVTVSS
# notes: as for B1
# B21: DR1467 (VHH)
# VHH: EVQLVESGGGLVQAGDSLRLSCAASGRISNYAMGWFRQAPGKEREFVAVITRSGGSTYYADSVKGRFTISRDNGKNTIDLQMNRLKPEDTAVYYCAVRRSQKLVTFGAEYPWWGQGTLVTVSS
# notes: as for B1
# B22: DR1468 (VHH)
# VHH: EVQLVESGGGLVQAGGSLRLSCTTSGRTGTHYAMGWFRQAPGKEREFVSLILWNGEFTTYKDSVKGRFTISREKGENTVYLQMNSLKPEDTAVYYCYLRVFARRYWGQGTQVTVSS
# notes: as for B1
# B23: DR1469 (VHH)
# VHH: EVQLVESGGGLVQPGGSLRLSCEVSGFTFSNYWMYWIRQAPGKGLEWVSHINTNGGNTYYRHSVKGRFTISRDNAKNTLYLQMNGLKSEDTAVYYCAKANSDVGLGYYGMDYWGKGTQVTVSS
# notes: as for B1
# B24: DR1470 (VHH)
# VHH: EVQLVESGGGSVQPGGSLRLSCAAPESIFNNNAVYWYRQFPGKEREYVGLITIGGRTGYADSVKGRFTISRDNANNVAFLQMDNLKPEDTAVYYCAARPGYWSSSYDYWGQGTQVTVSS
# notes: as for B1
# Target: T1, mIL2Rb ECD antigen
# Assay: PE-ELISA of phage clones
row,Binder,binding result
1,B1,binds
2,B2,binds
3,B3,binds
4,B4,binds
5,B5,binds
6,B6,binds
7,B7,binds
8,B8,binds
9,B9,binds
10,B10,binds
11,B11,binds
12,B12,binds
13,B13,binds
14,B14,binds
15,B15,binds
16,B16,binds
17,B17,binds
18,B18,binds
19,B19,binds
20,B20,binds
21,B21,binds
22,B22,binds
23,B23,binds
24,B24,binds
